Read-outs that look alike come from different tables or passages of the source. Values belong to the compound of their own block, whether it stands above or below them.
Key:
[1] = target: T1, α-chymotrypsin (Bos taurus, UniProt P00766); experiment: α-chymotrypsin mediated degradation of insulin with inhibitors (HPLC); assay type: biochemical
Protocol: (§1) Stability studies in the presence of chicken and duck ovomucoid were conducted. […] The degradation profiles were generated in the presence of 0.1 μM α-chymotrypsin and 0.5 μM trypsin over a period of 60 minutes that served as controls. These concentrations were selected based on a reported study (Schilling & Mitra 1991).
(§2) Samples were taken at 0, 5, 15, 30 and 60 minutes and immediately diluted with cold 1% TFA/TRIS to reduce the pH to 2.5. The samples were analyzed at 4° C. by a reverse-phase HPLC method using a Varian Chromatography Workstation. […] Similar studies were performed with aprotinin.
The protocol used was the same as above with minor modifications. […] The degradation profiles were generated in the presence of α-chymotrypsin and DkOVM. The enzyme to inhibitor ratio used was 1:1 with respect to α-chymotrypsin.

[2] = target: T2, trypsin (Bos taurus, UniProt P00760); experiment: trypsin mediated degradation of insulin with inhibitors (HPLC); assay type: biochemical; settings: trypsin 0.5 μM
T2 construct: gene PRSS1
T2 sequence (P00760 24-246): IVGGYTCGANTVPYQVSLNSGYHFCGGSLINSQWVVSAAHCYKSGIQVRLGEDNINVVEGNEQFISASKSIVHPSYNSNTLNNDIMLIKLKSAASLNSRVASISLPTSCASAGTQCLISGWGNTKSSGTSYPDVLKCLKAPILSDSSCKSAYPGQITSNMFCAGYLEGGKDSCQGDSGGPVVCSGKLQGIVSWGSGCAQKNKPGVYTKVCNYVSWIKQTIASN
Protocol: as §1
as §2, with “Workstation. Plots of insulin remaining versus time were generated.” for “Workstation.”

[3] = system: rat intestinal segments; experiment: Insulin transport across rat intestinal segments (side-by-side diffusion apparatus)
Description: (§3) Male Sprague Dawley rats weighing between 200-300 g were used for the permeability experiments. The intestine was excised and the jejunum was isolated by a reported method (Asada et al. 1995). Briefly, the duodenal and ileal segments were removed from top and bottom (13 cm on either side) and the residual intestine was designated as jejunum. The respective segments were mounted in a Navicyte Side-By-Side diffusion apparatus with accessories such as water circulator, flowmeter and humidifier.
(§4) The segments were mounted without stripping on a preheated acrylic half-cell and the cell assembly was then placed in a heated block after joining the other half-cell. The exposed surface area was 1.78 cm^2 and the reservoir volume was 6 mL. The donor and receiver compartments were immediately filled with pre-warmed oxygenated Krebs bicarbonate buffer adjusted to pH 7.4 with NaOH or HCl. The composition of buffer used is shown in Table 11, which illustrates the composition of stock solutions used for preparation of Krebs Bicarbonate solution. The stock solutions can be made in 100 mL or 1 L volume and stored in a refrigerator for one month. For preparation of working buffer, 50 mL of each stock solution above is added to a 1 L volumetric flask containing 750 mL of water. The pH was adjusted to 7.4 when necessary.
The mucosal buffer consisted of 40 mM mannitol and the serosal buffer consisted of 40 mM glucose. […] Mannitol equalizes the osmotic load between the mucosal and […] buffers and glucose helps to maintain tissue viability. The buffer was circulated by a gas lift (95%O2/5%CO2). The flow rate of gas lift was adjusted to 10±2 mL/min using a flow meter. The tissues were equilibrated for 10 min before the drug solution was added.
For the marker studies, the concentration of ^14C mannitol in donor compartment was 3.5×10^−5 μM and that of H testosterone was 4×10^−2 μM. The integrity of the tissues was determined by calculating the permeability coefficient (Papp) of mannitol. For α-chymotrypsin studies, the enzyme was added immediately after the addition of drug and inhibitor solution to achieve a final concentration of 0.5 μM. Samples (1 mL) were taken from the serosal side at various times up to 180 min and replaced with fresh transport medium. Aliquots of 10 μL were taken from the mucosal side at the beginning and end of the experiment and analyzed by a HPLC method discussed later. […] The radioactive samples were analyzed by using a liquid scintillation counter.
(§5) The results of experiments performed at least in triplicate are presented as mean±SE. Statistical differences between permeability in the presence of DkOVM and CkOVM and the means were determined by one-way analysis of variance (ANOVA). […]

[4] = target: T1, α-chymotrypsin; experiment: Insulin stability in Krebs bicarbonate buffer with α-chymotrypsin and DkOVM over 3 hours; assay type: biochemical; settings: absence of DkOVM
Protocol: The degradation profiles were generated in the presence of 0.5 μM α-chymotrypsin over a period of 3 hours that served as controls. […] Samples were taken up to 180 min and immediately diluted with cold 1% TFA/TRIS to reduce the pH to 2.5. The samples were analyzed by the RP-HPLC method reported earlier.

[5] = system: rat GIT segments; settings: cited from earlier work; for Papp × 10^7 cm/sec of insulin: Rat, Everted gut sac
[6] = system: rat GIT segments; settings: cited from earlier work; for Papp × 10^7 cm/sec of insulin: Rat, Ussing technique
[7] = system: apical epithelium; settings: Stoll et al. 2000; cited from earlier work
[8] = in vivo; cited from earlier work
[9] = cited from earlier work
[10] = in vitro; settings: male, Sprague Dawley, rat, pH 7.4
Description: as §3
as §4, with “necessary. […]” for “necessary.”
(§6) For the marker studies, the concentration of ^14C mannitol in donor compartment was 3.5×10^−5 μM and that of H testosterone was 4×10^−2 μM. The integrity of the tissues was determined by calculating the permeability coefficient (Papp) of mannitol. […] Aliquots of 10 μL were taken from the mucosal side at the beginning and end of the experiment and analyzed by a HPLC method discussed later. […] The radioactive samples were analyzed by using a liquid scintillation counter.
as §5

[11] = system: rat jejunum; experiment: in vitro
Description: as §3
as §4, with “necessary. […]” for “necessary.”
as §6, §5

[12] = target: T2, trypsin; experiment: Stability of sCT in the presence of trypsin and protease inhibitors; assay type: biochemical
Protocol: (§7) sCT solutions (50 μM) were incubated at 37° C. in 50 mM Tris buffer containing 0.1 mM calcium chloride (pH 8.0). Degradation profiles generated in the presence of 0.5 μM trypsin and 0.1 μM α-chymotrypsin served as controls. The concentrations were selected on the basis of a reported study (Schilling R. J. and Mitra A. K. 1991). DkOVM and TkOVM were evaluated at different enzyme-to-inhibitor ratios to evaluate their inhibition of sCT degradation. CkOVM and aprotinin were used at 1:1 enzyme-to-inhibitor ratio in order to compare the efficacy of various protease inhibitors used. sCT and enzyme solutions were incubated for 15 min at 37° C. before starting the experiments. Samples were taken after 0, 5, 15, 30 and 60 min and immediately diluted with cold 1% trifluoroacetic acid (TFA) to reduce the pH to 2.5. The samples were analysed at 4° C. by HPLC given below. Plots of sCT remaining against time were generated. […] (amount of sCT (%) remaining after 60 min) were used to compare the efficacy of the ovomucoids. Similar studies were performed with aprotinin. The study was also conducted by incubating 50 μM sCT solutions with 0.5 μM trypsin and 0.1 μM α-chymotrypsin added together and the efficacy of TkOVM was evaluated at various ratios.
(§8) sCT was analyzed by means of our validated HPLC method (Shah R B, et al., 2003). Briefly, a computer controlled Varian Chromatography workstation consisting of the following components was used: Two Dynamax SD-200 pumps, an AI-200A autosampler fitted with a 100 μl injection loop, a Dynamax UV-1 detector and Star 5.3 chromatography software. Room temperature was maintained for the column and chromatographic separations were carried out on a C-18 Vydac 218MS54 column (5 μm, 4.6×250 mm) with a pore size of 300 Å. 50 μl of samples were injected into the column which were analyzed by the reversed phase HPLC method. The mobile phase consisted of 0.05% v/v TFA-Water (A) and 0.05% v/v TFA-Acetonitrile (B). The gradient conditions were 20-35% B for 10 min, 35-37% B from 10th to 20th min and 37-20% B from 20th to 25th min at a flow rate of 1 ml/min. […] Concentrations of sCT were quantified from integrated peak areas and calculated by interpolation from an according standard curve.

[13] = target: T1, α-chymotrypsin; experiment: Stability of sCT in the presence of α-chymotrypsin and protease inhibitors; assay type: biochemical
Protocol: as §7, §8

[14] = chymotrypsin 0.1 μM, enzyme:inhibitor 1:1

Compound: insulin
% I60 min (insulin remaining at 60 minutes) ([1]; insulin 18 μM alone, no enzyme): 100% | insulin degraded in 60 minutes ([1]; α-chymotrypsin, control without inhibitor): more than 90% | % I60 min (insulin remaining at 60 minutes) ([2]; no inhibitor): 68.79 ± 1.85% | cumulative amount of insulin permeated at the end of three hours ([3]; jejunum): 0.04±0.023 IU | Permeability of insulin (P × 10^7 cm/sec) ([3]; rat jejunum, insulin 100 μM + α-chymotrypsin 0.5 μM + DkOVM 0.0 μM): 0.0 × 10^7 cm/sec | Permeability of insulin (P × 10^7 cm/sec) ([3]; rat jejunum, insulin 100 μM alone): 0.922 ± 0.168 × 10^7 cm/sec | Papp of insulin ([3]; rat jejunum, insulin alone): 0.922±0.168 ×10^−7 cm/sec | insulin (%) remaining at the end of 3 hours [4]: negligible | Papp × 10^7 cm/sec of insulin ([5]; Duodenum): 0.78 ± 0.54 × 10^7 cm/sec | Papp × 10^7 cm/sec of insulin ([5]; Ileum): 1.54 ± 0.29 × 10^7 cm/sec | Papp × 10^7 cm/sec of insulin ([5]; Jejunum): 1.385 ± 0.265 × 10^7 cm/sec | reported Papp of insulin from rat jejunum ([5]; Schilling & Mitra 1990): 5±2 ×10^−7 cm/sec | reported Papp of insulin from rat jejunum ([6]; Asada et al. 1995): 12.27±1.73 ×10^−7 cm/sec | Papp × 10^7 cm/sec of insulin ([6]; Colon): 4.05 ± 1.09 × 10^7 cm/sec | Papp × 10^7 cm/sec of insulin ([6]; Duodenum): 4.85 ± 0.99 × 10^7 cm/sec | Papp × 10^7 cm/sec of insulin ([6]; Jejunum): 12.27 ± 1.73 × 10^7 cm/sec | apical epithelial permeability of insulin [7]: 0.032 ×10⁻⁶ cm/s | insulin reaching the liver via the portal vein that undergoes degradation [8]: About 50% | peak time ([9]; pulmonary route): 5 to 60 min | peak time ([9]; subcutaneous route): 6 to 150 min

Compound: Aprotinin
% I60 min (insulin remaining at 60 minutes) [1, 14]: 69.65 ± 6.04% | % I60 min (insulin remaining at 60 minutes) ([2]; enzyme:inhibitor 1:1): 97.99 ± 0.08% | Amount (%) of sCT remaining at 60 min (I60) ([12]; trypsin 0.5 μM, enzyme:inhibitor 1:1): 83.36 ± 8.92% | Ratio (half-life versus trypsin alone) ([12]; trypsin:inhibitor 1:1): 199.34 | Amount (%) of sCT remaining at 60 min (I60) [13, 14]: 35.87 ± 1.06% | Ratio (half-life versus α-chymotrypsin alone) ([13]; α-chymotrypsin:inhibitor 1:1): 1.82

Further lines, results first:

% I60 min (insulin remaining at 60 minutes) ([1]; chymotrypsin + 0.5 mM EDTA, no inhibitor): 0.32 ± 0.33%
Compound: O=C(O)CN(CCN(CC(=O)O)CC(=O)O)CC(=O)O [EDTA]

% I60 min (insulin remaining at 60 minutes) ([1]; chymotrypsin + 30 mM NaGC, no inhibitor): 4.66 ± 0.8%
Compound: C[C@H](CCC(=O)NCC(=O)[O-])[C@H]1CC[C@H]2[C@@H]3[C@H](O)C[C@@H]4C[C@H](O)CC[C@]4(C)[C@H]3C[C@H](O)[C@]12C.[Na+] [NaGC, sodium glycocholate]

Papp at 180 min [10]: 3.46 ± 0.251 ×10⁻⁶ cm/s | ^14C Mannitol Permeability × 10^6 cm/sec [11]: 3.465 ± 0.251 × 10^6 cm/sec | ^14C Mannitol Ratio ([11]; male, Sprague Dawley, rat, 180 min, pH 7.4): 1.0
Compound: OC[C@@H](O)[C@@H](O)[C@H](O)[C@H](O)CO [^14C Mannitol, D-[1-^14C] mannitol]
